Source: article PMC4186791, “The Intrinsically Disordered Regions of the Drosophila melanogaster Hox Protein Ultrabithorax Select Interacting Proteins Based on Partner Topology” (PLoS ONE, 2014)

Columns and labels:
[1] = biological target: T1, UbxIb N103 Pro4 (Drosophila melanogaster, UniProt P83949 1-389, amino acids 2–102 removed (N103) | A226P | Q233P); experiment: two-hybrid; LexA-Ubx variant (pLexA) and B42-partner (pB42) co-transformed into S. cerevisiae EGY48 carrying p8op-LacZ; blue/white colonies on X-gal and liquid β-galactosidase (ONPG) assay after galactose induction at 30°C, reported in Miller units; conditions: partners not purified
T1 construct: Ultrabithorax (Ubx), Drosophila melanogaster, isoform Ib, from which amino acids 2–102 (Region 1) are removed, with the Pro4 mutations; Form is the full-length isoform Ib less the stated deletion; also called UbxIb N103 Pro4 (0, D2,0, D4, S5); source: yeast two-hybrid fusion (pLexA, S. cerevisiae EGY48)
T1 sequence (P83949 other isoform, or with tags, fused parts or gaps with the stated changes): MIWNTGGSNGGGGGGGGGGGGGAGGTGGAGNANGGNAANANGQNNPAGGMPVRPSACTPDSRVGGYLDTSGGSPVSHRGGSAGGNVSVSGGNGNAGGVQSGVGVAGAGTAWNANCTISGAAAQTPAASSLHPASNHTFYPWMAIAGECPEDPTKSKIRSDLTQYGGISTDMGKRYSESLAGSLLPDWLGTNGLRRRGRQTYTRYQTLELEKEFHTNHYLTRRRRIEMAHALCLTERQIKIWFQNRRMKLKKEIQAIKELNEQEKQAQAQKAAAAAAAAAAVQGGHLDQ

[2] = biological target: T2, UbxIb Δ103–216 (Drosophila melanogaster, UniProt P83949 1-389, Δ103-216); experiment: as above; conditions: partners not purified
T2 construct: source: yeast two-hybrid fusion (pLexA, S. cerevisiae EGY48)
T2 sequence (P83949 other isoform, or with tags, fused parts or gaps Δ103-216 | Δ103-216 | mutant): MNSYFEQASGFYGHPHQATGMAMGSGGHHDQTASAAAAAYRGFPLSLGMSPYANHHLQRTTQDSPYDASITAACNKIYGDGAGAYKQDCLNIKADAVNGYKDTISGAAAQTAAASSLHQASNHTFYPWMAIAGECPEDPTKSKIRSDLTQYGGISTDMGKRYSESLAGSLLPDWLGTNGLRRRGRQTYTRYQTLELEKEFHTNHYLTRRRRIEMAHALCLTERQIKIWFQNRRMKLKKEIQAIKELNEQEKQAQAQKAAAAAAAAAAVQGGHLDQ

Binder | percent of reporter signal lost relative to UbxIb Pro4 [1] | percent of reporter signal lost relative to UbxIb Pro4 [2]
14-3-3ε (natural protein, Drosophila melanogaster, UniProt P92177 1-262, looked up, 14-3-3ε, Drosophila melanogaster; source: yeast two-hybrid fusion (pB42, S. cerevisiae EGY48)) MTERENNVYKAKLAEQAERYDEMVEAMKKVASMDVELTVEERNLLSVAYKNVIGARRASWRIITSIEQKEENKGAEEKLEMIKTYRGQVEKELRDICSDILNVLEKHLIPCATSGESKVFYYKMKGDYHRYLAEFATGSDRKDAAENSLIAYKAASDIAMNDLPPTHPIRLGLALNFSVFYYEILNSPDRACRLAKAAFDDAIAELDTLSEESYKDSTLIMQLLRDNLTLWTSDMQAEEVDPNAGDGEPKEQIQDVEDQDVS | ≥ 59% | ≥ 59%
Dishevelled (natural protein, Drosophila melanogaster, UniProt P51140 1-623, looked up, Dishevelled (Dsh), Drosophila melanogaster; also called Dsh; source: yeast two-hybrid fusion (pB42, S. cerevisiae EGY48)) MDADRGGGQETKVIYHIDDETTPYLVKIPIPSAQVTLRDFKLVLNKQNNNYKYFFKSMDADFGVVKEEIADDSTILPCFNGRVVSWLVSADGTNQSDNCSELPTSECELGMGLTNRKLQQQQQQHQQQQQQQQQQHQQQQQQQQQQVQPVQLAQQQQQQVLHHQKMMGNPLLQPPPLTYQSASVLSSDLDSTSLFGTESELTLDRDMTDYSSVQRLQVRKKPQRRKKRAPSMSRTSSYSSITDSTMSLNIITVSINMEAVNFLGISIVGQSNRGGDGGIYVGSIMKGGAVALDGRIEPGDMILQVNDVNFENMTNDEAVRVLREVVQKPGPIKLVVAKCWDPNPKGYFTIPRTEPVRPIDPGAWVAHTQALTSHDSIIADIAEPIKERLDQNNLEEIVKAMTKPDSGLEIRDRMWLKITIPNAFIGADAVNWVLENVEDVQDRREARRIVSAMLRSNYIKHTVNKLTFSEQCYYVVNEERNPNLLGRGHLHPHQLPHGHGGHALSHADTESITSDIGPLPNPPIYMPYSATYNPSHGYQPIQYGIAERHISSGSSSSDVLTSKDISASQSDITSVIHQANQLTIAAHGSNKSSGSSNRGGGGGGGGGGNNTNDQDVSVFNYVL | ≥ 59% | ≥ 59%
Ribosomal protein L22 (natural protein, Ribosomal protein L22 (RpL22), Drosophila melanogaster; also called RpL22; source: yeast two-hybrid fusion (pB42, S. cerevisiae EGY48)) not shown | ≥ 59% | ≥ 59%
